Reference: US20200157236A1 (CELLDEX THERAPEUTICS, published 2020)
Substitutions are numbered along the chain they refer to.

B1: Ab331 (antibody, V domains shown)
VH: EVQVVETGGGVVQPGKSLEITCATSGLTFSTAWMYWVRQSSDRRLEWIARIKDKSNNFASDYVESVRGRFTISRDDSRSSVYLQMNNLKEEDTATYYCTTSYGYAWGQGVMVTVSS
VL: DIQMTQSPSSMSASLGDRITITCQASQDIGNYLIWFQQKPGKSPRPLIYYATNLANGVPSRFSGSRSGSEYSLTITSLESEDMADYHCLQYKQHLTFGSGTKLEIER
notes: rodent hybridoma mAb
B2: Ab326 (antibody, V domains shown)
VH: QVQLQQSGAELAKPGASVKLSCKASGYTFTSYWMHWVKQRPGQGLEWIGYIKPSSGYTKYNQKFKDKATLTADKSSSTAYMQLSSLTYEDSAVYYCARDYYGSSSWFAYWGQGTLVTVSA
VL: DIVMTQSQRFMSTSVGDRVSVTCKASQNVGTNVAWYQQKPGQSPKALIYSASYRYSGVPDRFTGSGSGTDFTLTISNVQSEDLAEYFCQQYNSYPYMYTFGGGTKLEIKR
notes: rodent hybridoma mAb
B3: Ab322 (antibody, V domains shown)
VH: B2 VH with S31N, K52N
VL: B2 VL with I75V
notes: rodent hybridoma mAb

Tests used:
[1] = target: T1, human ALK on the surface of NB1 cells (human, UniProt Q9UM73 21-1620); experiment: flow cytometry titration on NB1 cells, steady state
T1 construct: ALK of NB1 cells; also called cell surface hALK; NB1 (human)
Experimental: KD was determined by flow cytometry. Titration of each antibody on NB1 cells for 2-4 hours at 4° C. was followed by incubation with a fluorescently-labeled secondary antibody. The normalized mean fluorescent intensity […] shown as “% Max binding” was plotted as a function of antibody concentration.
Flow cytometry was utilized to measure the affinity at steady state (KD) with which different ALK antibodies bind to ALK on the surface of NB1 cells (FIG. 3). Titration of each antibody on NB1 cells for 2-4 hours at 4° C. was followed by incubation with a fluorescently-labeled secondary antibody. The normalized mean fluorescent intensity (MFI) shown as “% Max binding” was plotted as a function of antibody concentration. The data were fit to a one site binding isotherm using GraphPad Prism, from which affinity values were derived.

[2] = target: T2, murine ALK (Table 18, 'mouse ALK binding') (mouse, UniProt P97793 19-1042, limits assumed); experiment: ELISA on purified mouse ALK or flow cytometry on Neuro-2a cells
T2 construct: either purified mouse ALK antigen coated in ELISA or endogenous ALK on Neuro-2a cells
Experimental: Purified mAbs were evaluated for their ability to bind murine ALK by solid-state ELISA, or flow cytometry on Neuro-2a cells that express low levels of endogenous murine ALK.
Luminescence data were plotted as a function of the log-transformed anti-ALK antibody concentration and fit to a 4-parameter non-linear regression equation.
Alternatively, Neuro-2a cells were incubated with 10-100 nM of anti-ALK antibodies, followed by a fluorescently-labeled secondary antibody. Mean fluorescence intensity (MFI) of live-gated cells treated with anti-ALK antibodies was divided by background, determined using the secondary antibody alone.

[3] = target: human ALK, purified (hALK) (human, UniProt Q9UM73 19-1038, limits assumed); experiment: BLI (BLitz), estimated monovalent affinity, single dose kinetics
Experimental: (§1) Kinetic measurements of the monovalent affinity of the 96 humanized ALK antibody variants (Ab351-Ab446) were collected. Affinity ranking was performed using a BLitz® System (ForteBio, Menlo Park, Calif.). Humanized anti-ALK antibodies were immobilized at 0.5 mg/mL using Protein A tips. Once baseline stability was ensured, purified ALK proteins at 70 μg/mL were added. The resulting kinetic data were fit to a single binding site equation, from which the quoted monovalent KD values were derived.
(§2) KD values for both NB1 (human) cells and Neuro2a (mouse) cells were also determined.

[4] = target: mouse ALK, purified (mALK) (mouse, UniProt P97793 19-1042); experiment: as above
Experimental: as §1, §2

rat ALK, purified (rALK) = rat ALK, purified (rALK) (rat, UniProt P97793 19-1038 (mouse entry), limits assumed); experiment: as above
Experimental: as §1, §2

T1 sequence (Q9UM73 21-1620): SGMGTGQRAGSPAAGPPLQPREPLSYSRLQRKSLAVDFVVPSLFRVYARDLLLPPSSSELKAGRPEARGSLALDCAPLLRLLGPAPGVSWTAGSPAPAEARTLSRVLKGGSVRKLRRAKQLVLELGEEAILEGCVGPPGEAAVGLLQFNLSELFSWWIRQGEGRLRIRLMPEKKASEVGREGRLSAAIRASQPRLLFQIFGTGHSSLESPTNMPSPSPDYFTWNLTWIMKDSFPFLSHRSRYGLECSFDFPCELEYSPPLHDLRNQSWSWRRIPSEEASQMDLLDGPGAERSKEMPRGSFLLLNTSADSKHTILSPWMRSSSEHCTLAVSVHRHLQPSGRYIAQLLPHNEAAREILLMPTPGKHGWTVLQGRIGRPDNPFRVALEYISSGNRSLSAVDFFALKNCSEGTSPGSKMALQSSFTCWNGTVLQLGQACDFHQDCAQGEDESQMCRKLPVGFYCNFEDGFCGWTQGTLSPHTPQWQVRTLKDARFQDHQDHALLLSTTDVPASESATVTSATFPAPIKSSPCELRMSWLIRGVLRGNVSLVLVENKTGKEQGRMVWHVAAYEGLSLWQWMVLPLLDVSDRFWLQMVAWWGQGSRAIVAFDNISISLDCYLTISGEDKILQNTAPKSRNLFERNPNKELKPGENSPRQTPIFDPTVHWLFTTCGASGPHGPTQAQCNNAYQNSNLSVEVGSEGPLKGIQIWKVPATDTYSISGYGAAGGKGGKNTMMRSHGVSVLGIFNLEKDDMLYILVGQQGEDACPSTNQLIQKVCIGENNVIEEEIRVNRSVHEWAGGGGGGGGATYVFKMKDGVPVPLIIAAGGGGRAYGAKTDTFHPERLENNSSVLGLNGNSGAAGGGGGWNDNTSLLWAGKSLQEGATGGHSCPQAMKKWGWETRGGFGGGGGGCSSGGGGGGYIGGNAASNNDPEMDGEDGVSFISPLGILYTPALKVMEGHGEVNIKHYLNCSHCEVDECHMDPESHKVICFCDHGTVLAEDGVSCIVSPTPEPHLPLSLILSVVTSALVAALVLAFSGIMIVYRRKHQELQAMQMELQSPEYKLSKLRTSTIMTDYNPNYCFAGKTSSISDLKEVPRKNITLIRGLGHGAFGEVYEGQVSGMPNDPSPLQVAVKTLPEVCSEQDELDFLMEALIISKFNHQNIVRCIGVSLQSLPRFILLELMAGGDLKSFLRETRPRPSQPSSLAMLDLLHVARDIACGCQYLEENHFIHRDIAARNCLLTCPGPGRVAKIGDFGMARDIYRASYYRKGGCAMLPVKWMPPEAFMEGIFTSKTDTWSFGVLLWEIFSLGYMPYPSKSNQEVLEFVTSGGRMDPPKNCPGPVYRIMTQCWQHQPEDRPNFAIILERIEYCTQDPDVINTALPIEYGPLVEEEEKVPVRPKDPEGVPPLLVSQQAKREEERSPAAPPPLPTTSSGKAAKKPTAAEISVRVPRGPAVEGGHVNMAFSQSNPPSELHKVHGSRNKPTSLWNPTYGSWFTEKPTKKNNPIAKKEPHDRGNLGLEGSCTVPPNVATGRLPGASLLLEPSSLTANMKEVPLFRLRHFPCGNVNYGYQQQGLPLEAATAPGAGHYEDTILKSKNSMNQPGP
T2 sequence (P97793 19-1042 limits assumed): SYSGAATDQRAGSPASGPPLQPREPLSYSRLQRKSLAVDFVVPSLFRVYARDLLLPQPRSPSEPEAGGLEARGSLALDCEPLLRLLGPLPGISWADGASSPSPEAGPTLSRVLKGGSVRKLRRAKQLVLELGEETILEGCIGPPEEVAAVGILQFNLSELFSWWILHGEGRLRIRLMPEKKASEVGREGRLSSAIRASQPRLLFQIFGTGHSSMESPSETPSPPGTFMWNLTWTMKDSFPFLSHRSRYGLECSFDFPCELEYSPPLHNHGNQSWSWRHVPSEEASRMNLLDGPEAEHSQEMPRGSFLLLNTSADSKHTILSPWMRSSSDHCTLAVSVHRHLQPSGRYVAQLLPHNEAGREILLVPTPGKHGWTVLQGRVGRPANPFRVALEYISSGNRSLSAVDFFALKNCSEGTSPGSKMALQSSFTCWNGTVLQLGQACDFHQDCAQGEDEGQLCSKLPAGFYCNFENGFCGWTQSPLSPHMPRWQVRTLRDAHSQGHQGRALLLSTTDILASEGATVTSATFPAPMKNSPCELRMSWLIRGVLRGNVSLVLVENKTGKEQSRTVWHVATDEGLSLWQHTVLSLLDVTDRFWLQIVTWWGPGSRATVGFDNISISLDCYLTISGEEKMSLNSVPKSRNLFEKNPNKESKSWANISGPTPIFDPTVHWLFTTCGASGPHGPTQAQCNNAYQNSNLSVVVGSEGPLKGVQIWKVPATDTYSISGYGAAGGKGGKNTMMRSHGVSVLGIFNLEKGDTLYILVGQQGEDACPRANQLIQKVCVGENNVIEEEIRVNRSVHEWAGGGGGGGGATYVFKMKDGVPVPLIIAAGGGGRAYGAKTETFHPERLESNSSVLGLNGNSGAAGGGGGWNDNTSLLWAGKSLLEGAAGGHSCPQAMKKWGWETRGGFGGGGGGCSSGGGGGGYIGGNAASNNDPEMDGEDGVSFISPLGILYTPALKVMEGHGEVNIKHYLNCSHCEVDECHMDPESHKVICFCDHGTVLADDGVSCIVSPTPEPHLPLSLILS
human ALK, purified (hALK), sequence (Q9UM73 other isoform, or with tags, fused parts or gaps limits assumed): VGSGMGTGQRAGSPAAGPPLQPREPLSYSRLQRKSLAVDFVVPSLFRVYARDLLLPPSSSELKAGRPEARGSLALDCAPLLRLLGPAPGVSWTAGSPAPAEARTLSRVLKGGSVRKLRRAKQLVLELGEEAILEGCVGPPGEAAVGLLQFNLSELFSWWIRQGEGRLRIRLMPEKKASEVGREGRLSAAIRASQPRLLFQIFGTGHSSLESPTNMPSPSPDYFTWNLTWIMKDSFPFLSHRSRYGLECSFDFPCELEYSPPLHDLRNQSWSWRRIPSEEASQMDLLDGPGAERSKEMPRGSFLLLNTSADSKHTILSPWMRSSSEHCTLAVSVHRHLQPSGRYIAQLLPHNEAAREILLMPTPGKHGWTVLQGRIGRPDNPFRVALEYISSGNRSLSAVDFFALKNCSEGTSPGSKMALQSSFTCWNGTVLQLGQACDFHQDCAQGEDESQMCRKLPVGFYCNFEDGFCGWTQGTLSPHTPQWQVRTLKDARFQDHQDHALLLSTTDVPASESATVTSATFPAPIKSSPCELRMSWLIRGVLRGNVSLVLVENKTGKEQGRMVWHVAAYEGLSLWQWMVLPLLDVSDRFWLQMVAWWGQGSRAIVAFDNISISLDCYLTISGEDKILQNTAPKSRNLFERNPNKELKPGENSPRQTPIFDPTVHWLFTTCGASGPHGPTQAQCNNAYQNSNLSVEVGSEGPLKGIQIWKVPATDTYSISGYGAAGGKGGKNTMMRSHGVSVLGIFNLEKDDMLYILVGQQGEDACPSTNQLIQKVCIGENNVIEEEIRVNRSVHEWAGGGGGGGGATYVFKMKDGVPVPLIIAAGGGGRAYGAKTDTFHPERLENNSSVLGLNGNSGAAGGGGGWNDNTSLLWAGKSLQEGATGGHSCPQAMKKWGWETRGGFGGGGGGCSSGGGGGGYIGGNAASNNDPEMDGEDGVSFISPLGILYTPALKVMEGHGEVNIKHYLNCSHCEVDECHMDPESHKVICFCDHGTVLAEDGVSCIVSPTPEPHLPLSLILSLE
mouse ALK, purified (mALK), sequence (P97793 19-1042 limits assumed): as the sequence (P97793 19-1042 limits assumed) above
rat ALK, purified (rALK), sequence (P97793 other isoform, or with tags, fused parts or gaps limits assumed): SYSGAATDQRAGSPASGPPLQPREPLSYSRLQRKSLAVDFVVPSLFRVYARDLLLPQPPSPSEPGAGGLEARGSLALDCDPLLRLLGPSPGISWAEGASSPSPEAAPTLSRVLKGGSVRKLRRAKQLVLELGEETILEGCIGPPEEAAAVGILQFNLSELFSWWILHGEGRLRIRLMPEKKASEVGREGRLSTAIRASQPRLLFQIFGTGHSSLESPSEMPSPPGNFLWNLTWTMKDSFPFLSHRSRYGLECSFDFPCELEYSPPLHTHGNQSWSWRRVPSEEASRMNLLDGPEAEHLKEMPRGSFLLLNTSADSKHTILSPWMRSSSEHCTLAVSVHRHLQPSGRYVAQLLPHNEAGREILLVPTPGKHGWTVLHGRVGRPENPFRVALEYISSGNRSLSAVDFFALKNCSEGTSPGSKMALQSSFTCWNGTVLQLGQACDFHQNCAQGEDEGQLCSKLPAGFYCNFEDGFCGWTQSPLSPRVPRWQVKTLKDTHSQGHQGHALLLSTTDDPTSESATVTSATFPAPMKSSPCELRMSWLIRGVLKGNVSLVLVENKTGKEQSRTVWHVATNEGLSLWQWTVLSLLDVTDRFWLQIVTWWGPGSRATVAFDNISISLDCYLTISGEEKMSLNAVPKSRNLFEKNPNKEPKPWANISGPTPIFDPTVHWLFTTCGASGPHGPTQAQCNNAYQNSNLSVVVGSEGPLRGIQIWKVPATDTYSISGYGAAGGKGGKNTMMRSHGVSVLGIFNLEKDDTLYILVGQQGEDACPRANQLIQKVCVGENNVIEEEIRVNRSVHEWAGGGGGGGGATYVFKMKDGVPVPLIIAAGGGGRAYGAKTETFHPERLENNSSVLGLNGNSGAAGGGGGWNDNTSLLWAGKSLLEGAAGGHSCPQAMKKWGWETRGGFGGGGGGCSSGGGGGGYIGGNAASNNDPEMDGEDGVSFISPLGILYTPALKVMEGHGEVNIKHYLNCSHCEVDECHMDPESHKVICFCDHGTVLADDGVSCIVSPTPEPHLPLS

| Binder | Kd [1] | binding result [2] | Kd [3] | Kd [4] | Kd (rat ALK, purified (rALK)) |
| --- | --- | --- | --- | --- | --- |
| B1 | 2.5 nM | no binding |  |  |  |
| B2 | 0.35 nM |  | 69 nM | 120 nM | 35 nM |
| B3 | 0.5 nM | no binding |  |  |  |
